Measured values published in patent US20060257406A1 (published 2006).

B1: TAR1-5d1 (other)
chain: DIQMTQSPSSLSASVGDRVTITCRASQSIFMNLLWYQQKPGKAPKLLIYNASVLQSGVPSRFSGSGSGTDFTLTISSLQPEDFATYYCQQVVWRPFTFGQGTKVEIKRGGGGSGGGGSGGGGSDIQMTQSPSSLSASVGDRVTITCRASQSIYDALEWYQQKPGKAPKLLIYTASRLQSGVPSRFSGSGSGTDFTLTISSLQPEDFATYYCQQVMQRPVTFGQGTKVEIK
notes: dAb-linker-dAb dimer; FPLC purified small dimeric species; also called dimer 1
B2: TAR1-5d6 (other)
chain: DIQMTQSPSSLSASVGDRVTITCRASQSIFMNLLWYQQKPGKAPKLLIYNASVLQSGVPSRFSGSGSGTDFTLTISSLQPEDFATYYCQQVVWRPFTFGQGTKVEIKRGGGGSGGGGSGGGGSGGGGSGGGGSGGGGSGGGGSDIQMTQSPSSLSASVGDRVTITCRASQSIYDALEWYQQKPGKAPKLLIYTASRLQSGVPSRFSGSGSGTDFTLTISSLQPEDFATYYCQQVMQRPVTFGQGTKVEIK
notes: FPLC purified large dimeric species; also called dimer 6
B3: TAR1-5d5 (other)
chain: DIQMTQSPSSLSASVGDRVTITCRASQSIFMNLLWYQQKPGKAPKLLIYNASVLQSGVPSRFSGSGSGTDFTLTISSLQPEDFATYYCQQVVWRPFTFGQGTKVEIKRGGGGSGGGGSGGGGSGGGGSGGGGSDIQMTQSPSSLSASVGDRVTITCRASQSIYDALEWYQQKPGKAPKLLIYTASRLQSGVPSRFSGSGSGTDFTLTISSLQPEDFATYYCQQVMQRPVTFGQGTKVEIK
notes: FPLC purified large dimeric species; also called dimer 5
B4: TAR1-5d4 (other)
chain: DIQMTQSPSSLSASVGDRVTITCRASQSIFMNLLWYQQKPGKAPKLLIYNASVLQSGVPSRFSGSGSGTDFTLTISSLQPEDFATYYCQQVVWRPFTFGQGTKVEIKRGGGGSGGGGSGGGGSGGGGSGGGGSDIQMTQSPSSLSASVGDRVTITCRASQSVKEFLWWYQQKPGKAPKLLIYMASNLQSGVPSRFSGSGSGTDFTLTISSLQPEDFATYYCQQKFKLPRTFGQGTKVEIK
notes: FPLC purified small dimeric species; also called TAR1-5 dimer 4
B5: TAR1-5-19 d1 (other)
chain: DIQMTQSPSSLSASVGDRVTITCRASQSIDSYLHWYQQKPGKAPKLLIYSASELQSGVPSRFSGSGSGTDFTLTISSLQPEDFATYYCQQVVWRPFTFGQGTKVEIKRGGGGSGGGGSGGGGSDIQMTQSPSSLSASVGDRVTITCRASQSIYDALEWYQQKPGKAPKLLIYTASRLQSGVPSRFSGSGSGTDFTLTISSLQPEDFATYYCQQVMQRPVTFGQGTKVEIK
B6: TAR1-5-19 d6 (other)
chain: DIQMTQSPSSLSASVGDRVTITCRASQSIDSYLHWYQQKPGKAPKLLIYSASELQSGVPSRFSGSGSGTDFTLTISSLQPEDFATYYCQQVVWRPFTFGQGTKVEIKRGGGGSGGGGSGGGGSGGGGSGGGGSGGGGSGGGGSDIQMTQSPSSLSASVGDRVTITCRASQSIYDALEWYQQKPGKAPKLLIYTASRLQSGVPSRFSGSGSGTDFTLTISSLQPEDFATYYCQQVMQRPVTFGQGTKVEIK
B7: TAR1-5-19d5 (other)
scFv: DIQMTQSPSSLSASVGDRVTITCRASQSIDSYLHWYQQKPGKAPKLLIYSASELQSGVPSRFSGSGSGTDFTLTISSLQPEDFATYYCQQVVWRPFTFGQGTKVEIKRGGGGSGGGGSGGGGSGGGGSGGGGSDIQMTQSPSSLSASVGDRVTITCRASQSIYDALEWYQQKPGKAPKLLIYTASRLQSGVPSRFSGSGSGTDFTLTISSLQPEDFATYYCQQVMQRPVTFGQGTKVEIK
B8: TAR1-5-19 cys hinge (other)
chain: DIQMTQSPSSLSASVGDRVTITCRASQSIDSYLHWYQQKPGKAPKLLIYSASELQSGVPSRFSGSGSGTDFTLTISSLQPEDFATYYCQQVVWRPFTFGQGTKVEIKREPKSGDKTHFCPPCP
notes: also called cysteine hinge linker format; hinge dimer
B9: TAR1-5-19CH/dAb1 CK (Fab, V domains shown)
V domain 1: DIQMTQSPSSLSASVGDRVTITCRASQSIDSYLHWYQQKPGKAPKLLIYSASELQSGVPSRFSGSGSGTDFTLTISSLQPEDFATYYCQQVVWRPFTFGQGTKVEIK
V domain 2: DIQMTQSPSSLSASVGDRVTITCRASQSIYDALEWYQQKPGKAPKLLIYTASRLQSGVPSRFSGSGSGTDFTLTISSLQPEDFATYYCQQVMQRPVTFGQGTKVEIK
notes: also called TAR1-5-19CH d1CK
B10: dAb3CH/TAR1-5CK (Fab, V domains shown)
V domain 1: DIQMTQSPSSLSASVGDRVTITCRASQSVKEFLWWYQQKPGKAPKLLIYMASNLQSGVPSRFSGSGSGTDFTLTISSLQPEDFATYYCQQKFKLPRTFGQGTKVEIK
V domain 2: DIQMTQSPSSLSASVGDRVTITCRASQSIFMNLLWYQQKPGKAPKLLIYNASVLQSGVPSRFSGSGSGTDFTLTISSLQPEDFATYYCQQVVWRPFTFGQGTKVEIK
notes: also called TAR1-5CK d3CH
B11: dAb1 CH/TAR1-5-19CK (Fab, V domains shown)
V domain 1: DIQMTQSPSSLSASVGDRVTITCRASQSIYDALEWYQQKPGKAPKLLIYTASRLQSGVPSRFSGSGSGTDFTLTISSLQPEDFATYYCQQVMQRPVTFGQGTKVEIK
V domain 2: DIQMTQSPSSLSASVGDRVTITCRASQSIDSYLHWYQQKPGKAPKLLIYSASELQSGVPSRFSGSGSGTDFTLTISSLQPEDFATYYCQQVVWRPFTFGQGTKVEIK
notes: also called TAR1-5-19CK d1CH
B12: TAR1-5CH/dAb1 CK (Fab, V domains shown)
V domain 1: DIQMTQSPSSLSASVGDRVTITCRASQSIFMNLLWYQQKPGKAPKLLIYNASVLQSGVPSRFSGSGSGTDFTLTISSLQPEDFATYYCQQVVWRPFTFGQGTKVEIK
V domain 2: DIQMTQSPSSLSASVGDRVTITCRASQSIYDALEWYQQKPGKAPKLLIYTASRLQSGVPSRFSGSGSGTDFTLTISSLQPEDFATYYCQQVMQRPVTFGQGTKVEIK
B13: TAR1-5-19CH/dAb3CK (Fab, V domains shown)
V domain 1: DIQMTQSPSSLSASVGDRVTITCRASQSIDSYLHWYQQKPGKAPKLLIYSASELQSGVPSRFSGSGSGTDFTLTISSLQPEDFATYYCQQVVWRPFTFGQGTKVEIK
V domain 2: DIQMTQSPSSLSASVGDRVTITCRASQSVKEFLWWYQQKPGKAPKLLIYMASNLQSGVPSRFSGSGSGTDFTLTISSLQPEDFATYYCQQKFKLPRTFGQGTKVEIK
notes: also called TAR1-5-19CH d3CK

target: T1, human TNFα (human, UniProt P01375 77-233); assay: TNF receptor assay (ELISA): inhibition of TNF binding to plate-bound TNF receptor 1-Fc
T1 construct: also called TAR1; TNF alpha
T1 sequence (P01375 77-233 limits assumed): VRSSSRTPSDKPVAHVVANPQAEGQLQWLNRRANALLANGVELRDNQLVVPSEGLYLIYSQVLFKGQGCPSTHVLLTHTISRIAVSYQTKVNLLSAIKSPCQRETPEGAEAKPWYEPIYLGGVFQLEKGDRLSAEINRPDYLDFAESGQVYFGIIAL

**Q.** Which IC50 does the source give for B1 here?
**A.** The IC50 was ~30 nM.

**Q.** Which IC50 does the source give for B2 here?
**A.** Its IC50 is ~100 nM.

**Q.** Which IC50 does the source give for B3 here?
**A.** The IC50 was ~200 nM.

**Q.** B4 was tested. Which IC50 did it give?
**A.** Its IC50 is ~3 nM.

target: T1, human TNFα; assay: as above; remark: another data set of the same source

**Q.** B5 was tested. Which IC50 did it give?
**A.** Its IC50 is ~15 nM.

**Q.** With B6 as the binder, how does the IC50 read?
**A.** The IC50 was ~10 nM.

**Q.** Which IC50 does the source give for B7 here?
**A.** The IC50 was ~8 nM.

target: T1, human TNFα; assay: as above; remark: another data set of the same source

**Q.** How did the IC50 turn out when B8 was run?
**A.** The IC50 was ~2 nM.

target: T1, human TNFα; assay: as above; remark: another data set of the same source

**Q.** For B9, which IC50 is on record?
**A.** Its IC50 is ~6 nM.

**Q.** With B10 as the binder, how does the IC50 read?
**A.** The IC50 was ~100 nM.

**Q.** For B11, which IC50 is on record?
**A.** Its IC50 is ~6 nM.

**Q.** B12 was tested. Which IC50 did it give?
**A.** Its IC50 is ~90 nM.

**Q.** For B13, which IC50 is on record?
**A.** Its IC50 is ~3 nM.
